Source: paper PMC2734569, “Functional mapping of the fission yeast DNA polymerase δ B-subunit Cdc1 by site-directed and random pentapeptide insertion mutagenesis” (BMC Molecular Biology, 2009)

What was measured:
Assay in all cases: two-hybrid; LexA-Cdc1 bait (pBTM116 or pBTM116BN) with Gal4 activation domain-Cdc27 prey (pGAD2F-Cdc27) in S. cerevisiae CTY10-5d; ONPG liquid culture beta-galactosidase assay, mean of triplicates, as percent of wild-type Cdc1
Details in all cases: partners not purified
Cdc1-A8 = biological target: T1, Cdc1-A8 (Schizosaccharomyces pombe, UniProt P87324 1-462, Pro374Ala)
T1 construct: Cdc1, S. pombe, point mutant; source: yeast two-hybrid fusion, in S. cerevisiae CTY10-5d
T1 sequence (looked up): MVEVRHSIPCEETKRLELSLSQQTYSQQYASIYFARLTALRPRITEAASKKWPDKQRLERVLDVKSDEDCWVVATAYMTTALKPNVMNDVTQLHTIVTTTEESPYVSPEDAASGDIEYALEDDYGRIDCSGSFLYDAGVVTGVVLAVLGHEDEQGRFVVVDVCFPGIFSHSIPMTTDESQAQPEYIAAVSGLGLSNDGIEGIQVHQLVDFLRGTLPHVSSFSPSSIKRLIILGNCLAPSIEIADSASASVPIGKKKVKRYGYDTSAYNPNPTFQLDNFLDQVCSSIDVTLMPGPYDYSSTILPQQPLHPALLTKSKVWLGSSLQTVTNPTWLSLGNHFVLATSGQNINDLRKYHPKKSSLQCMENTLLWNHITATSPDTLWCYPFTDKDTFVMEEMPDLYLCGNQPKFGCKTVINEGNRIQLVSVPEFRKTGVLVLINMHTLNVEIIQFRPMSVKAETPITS

Cdc1-A3 = biological target: T2, Cdc1-A3 (Schizosaccharomyces pombe, UniProt P87324 1-462, Asp296Ala)
T2 construct: Cdc1, S. pombe, point mutant; source: yeast two-hybrid fusion, in S. cerevisiae CTY10-5d
T2 sequence (looked up): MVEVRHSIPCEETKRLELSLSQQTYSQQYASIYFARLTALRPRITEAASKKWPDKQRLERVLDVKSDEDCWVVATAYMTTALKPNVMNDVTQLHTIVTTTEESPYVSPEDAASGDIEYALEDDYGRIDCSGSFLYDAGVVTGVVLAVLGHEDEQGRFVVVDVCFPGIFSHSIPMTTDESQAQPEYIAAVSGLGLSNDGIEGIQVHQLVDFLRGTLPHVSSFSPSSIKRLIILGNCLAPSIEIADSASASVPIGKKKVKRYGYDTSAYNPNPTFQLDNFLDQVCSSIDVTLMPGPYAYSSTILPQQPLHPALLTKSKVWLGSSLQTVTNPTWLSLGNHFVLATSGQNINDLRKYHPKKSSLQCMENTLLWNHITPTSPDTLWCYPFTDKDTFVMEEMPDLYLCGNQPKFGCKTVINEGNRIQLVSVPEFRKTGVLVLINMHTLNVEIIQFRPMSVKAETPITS

Cdc1-E1 = biological target: T3, Cdc1-E1 (Schizosaccharomyces pombe, UniProt P87324 1-462, Ser-GlyValProGlnSer-Asp)
T3 construct: Cdc1, S. pombe, with a pentapeptide inserted after residue 66; source: yeast two-hybrid fusion, in S. cerevisiae CTY10-5d
T3 sequence (looked up): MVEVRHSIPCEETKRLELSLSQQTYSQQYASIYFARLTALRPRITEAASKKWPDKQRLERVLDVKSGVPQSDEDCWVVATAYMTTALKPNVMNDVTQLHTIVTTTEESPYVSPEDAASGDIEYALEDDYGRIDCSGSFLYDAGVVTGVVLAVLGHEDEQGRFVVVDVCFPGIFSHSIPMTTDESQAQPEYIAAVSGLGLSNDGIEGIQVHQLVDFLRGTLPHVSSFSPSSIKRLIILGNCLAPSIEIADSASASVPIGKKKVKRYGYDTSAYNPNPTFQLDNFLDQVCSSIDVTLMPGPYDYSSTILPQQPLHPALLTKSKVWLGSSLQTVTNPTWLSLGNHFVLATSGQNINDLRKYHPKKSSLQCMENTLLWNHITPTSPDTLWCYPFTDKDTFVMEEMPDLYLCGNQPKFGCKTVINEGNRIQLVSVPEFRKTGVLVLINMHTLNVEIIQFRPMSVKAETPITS

Cdc1-A4 = biological target: T4, Cdc1-A4 (Schizosaccharomyces pombe, UniProt P87324 1-462, Pro303Ala)
T4 construct: Cdc1, S. pombe, point mutant; source: yeast two-hybrid fusion, in S. cerevisiae CTY10-5d
T4 sequence (looked up): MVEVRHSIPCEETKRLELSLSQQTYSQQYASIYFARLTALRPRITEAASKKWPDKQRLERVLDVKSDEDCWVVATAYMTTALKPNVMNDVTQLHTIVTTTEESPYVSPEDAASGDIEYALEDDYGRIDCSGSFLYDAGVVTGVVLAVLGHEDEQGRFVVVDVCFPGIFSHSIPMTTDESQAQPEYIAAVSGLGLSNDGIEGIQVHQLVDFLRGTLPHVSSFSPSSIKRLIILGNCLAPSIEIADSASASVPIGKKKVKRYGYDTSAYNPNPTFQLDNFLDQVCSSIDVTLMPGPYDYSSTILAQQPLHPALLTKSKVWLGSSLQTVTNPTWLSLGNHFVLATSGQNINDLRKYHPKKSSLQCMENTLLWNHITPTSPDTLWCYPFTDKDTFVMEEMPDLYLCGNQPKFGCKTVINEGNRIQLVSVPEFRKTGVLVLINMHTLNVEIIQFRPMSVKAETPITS

B1: Cdc27 (fission yeast DNA polymerase delta C-subunit) (natural protein, Schizosaccharomyces pombe, UniProt P30261 1-372, looked up)
chain: MEEWRNFLDIKVINESSLVTVDNLSLQLDISSEKAQEYLNMFYQGNDFLYPIYLIHGQPIDDEINLEIDEESQPISNFPVLQYILCDKSSLQEKQSRLKSGYKTVIFALSSAPLSDFDELLPAVYEIREKDVLYKKEDADKYGFIFNENSVPRVLKKAPSTHSPQLSVPSKTSTIDKTDTRSTEKTKGKDIFSNARNQKGNSSRKNKKAPLENHKEKEPLLPKEEKLSEQAKRERDDLKNIMQLEDESVSTTSVHDSEDDNLDSNNFQLEIGTEAKSAAPDEPQEIIKSVSGGKRRGKRKVKKYATTKDEEGFLVTKEEEVWESFSEDENISTGTSNVVRNKPTTVNIATKKKNTAQSKPQQKSIMSFFGKK
notes: DNA polymerase delta C-subunit Cdc27, S. pombe; prey plasmid pGAD2F-Cdc27; also called pGAD2F-Cdc27; source: yeast two-hybrid fusion, in S. cerevisiae CTY10-5d
two-hybrid beta-galactosidase activity, % of wild-type Cdc1 (Cdc1-A8): 8% | two-hybrid beta-galactosidase activity, % of wild-type Cdc1 (Cdc1-A3): 23% | two-hybrid beta-galactosidase activity, % of wild-type Cdc1 (Cdc1-E1): 1% | two-hybrid beta-galactosidase activity, % of wild-type Cdc1 (Cdc1-A4): 31%
